Measured values: article PMC9427763, “Structure and dynamics of Toll immunoreceptor activation in the mosquito Aedes aegypti” (Nature Communications, 2022)
Where “and” joins values, the source holds several entries; their conditions need not be identical. Equal values may be shown once.

How the values were obtained:
[1] = target: T1, Aedes aegypti Spaetzle1C cystine-knot domain (residues 219-320), disulphide-linked dimer (Aedes aegypti, intermolecular disulphide bonds between Cys-94 and between Cys-59 of the two chains); experiment: SPR; heterogeneous ligand fit, second site
T1 chain: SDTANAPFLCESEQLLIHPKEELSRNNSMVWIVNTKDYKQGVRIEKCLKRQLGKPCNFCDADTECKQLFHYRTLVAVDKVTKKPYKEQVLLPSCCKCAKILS

[2] = target: Aedes aegypti Spaetzle1C cystine-knot domain (residues 219-320), disulphide-linked dimer (Aedes aegypti); experiment: mass photometry; 50 nM Toll5A with 50 nM Spz1C; PBS pH 7.4; Refeyn OneMP
[3] = target: Aedes aegypti Toll5A ectodomain (residues 1-789) (Aedes aegypti); experiment: SEC-MALS; 50 μM Toll5A alone or saturated with Spz1C loaded on Superose 6; 50 mM Tris-HCl pH 7.5, 50 mM NaCl
[4] = target: Aedes aegypti Spaetzle1C cystine-knot domain (residues 219-320), disulphide-linked dimer (Aedes aegypti); experiment: as above
[5] = target: Aedes aegypti Spaetzle1C cystine-knot domain (residues 219-320), disulphide-linked dimer (Aedes aegypti); experiment: AUC; sedimentation velocity, Toll5A with Spz1C at equimolar concentration or in excess; 50,000 rpm, 20 °C
[6] = target: Aedes aegypti Toll5A ectodomain (residues 1-789) (Aedes aegypti); experiment: AUC; sedimentation velocity, Toll5A ectodomain alone at ≥ 30 μM; 50,000 rpm, 20 °C; dimer to monomers
[7] = target: T1, Aedes aegypti Spaetzle1C cystine-knot …; experiment: SPR; heterogeneous ligand fit, site 1
[8] = target: Aedes aegypti Spaetzle1C cystine-knot domain (residues 219-320), disulphide-linked dimer (Aedes aegypti); experiment: SPR; Biacore T200, CM5 chip; Spz1A, Spz1C and DmSpz proproteins and cys-knot ligands immobilised by amine coupling at pH 4.5; Toll ectodomains injected at 0.1-7.5 μM; 100 mM NaCl, 20 mM HEPES pH 7; 30 μl/min; two-state reaction model
[9] = target: Aedes aegypti Spaetzle1C cystine-knot domain (residues 219-320), disulphide-linked dimer (Aedes aegypti); experiment: mass photometry; 25 nM Toll5A with 25 nM Spz1C; PBS pH 7.4; Refeyn OneMP
[10] = target: T2, Drosophila melanogaster Toll (Toll1) ectodomain (Drosophila melanogaster, UniProt P08953 28-807); experiment: SPR; Biacore T200, CM5 chip; Spz1A, Spz1C and DmSpz proproteins and cys-knot ligands immobilised by amine coupling at pH 4.5; Toll ectodomains injected at 0.1-7.5 μM; 100 mM NaCl, 20 mM HEPES pH 7; 30 μl/min; two-state reaction model; conditions: both partners purified
T2 construct: Toll receptor 1, Drosophila melanogaster, purified ectodomain; also called DmToll1; DmToll
T2 sequence (looked up): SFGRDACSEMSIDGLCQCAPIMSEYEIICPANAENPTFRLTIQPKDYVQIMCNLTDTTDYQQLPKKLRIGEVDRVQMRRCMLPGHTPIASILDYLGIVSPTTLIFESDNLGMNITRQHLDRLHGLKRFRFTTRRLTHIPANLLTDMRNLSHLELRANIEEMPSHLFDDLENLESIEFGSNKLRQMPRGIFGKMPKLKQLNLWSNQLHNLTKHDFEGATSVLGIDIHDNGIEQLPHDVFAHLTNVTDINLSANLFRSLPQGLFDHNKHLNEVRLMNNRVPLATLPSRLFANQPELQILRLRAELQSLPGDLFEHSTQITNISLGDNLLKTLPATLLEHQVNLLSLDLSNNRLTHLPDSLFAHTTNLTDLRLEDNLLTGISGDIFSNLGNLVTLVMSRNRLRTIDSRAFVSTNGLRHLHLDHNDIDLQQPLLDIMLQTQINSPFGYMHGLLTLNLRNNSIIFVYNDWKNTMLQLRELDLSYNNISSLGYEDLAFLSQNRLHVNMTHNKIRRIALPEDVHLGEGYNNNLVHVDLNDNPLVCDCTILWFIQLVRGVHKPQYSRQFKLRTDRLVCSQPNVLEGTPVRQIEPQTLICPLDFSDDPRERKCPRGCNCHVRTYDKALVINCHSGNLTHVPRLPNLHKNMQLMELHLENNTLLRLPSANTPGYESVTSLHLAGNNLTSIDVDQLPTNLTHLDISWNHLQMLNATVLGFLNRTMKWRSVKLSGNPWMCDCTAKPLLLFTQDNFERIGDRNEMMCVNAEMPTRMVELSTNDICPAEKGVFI

B1: Aedes aegypti Toll5A ectodomain (residues 1-789) (receptor)
chain: TSTKRFTCPEESEASNCSCEEFPSKTHFYCPDFNPTLYVDVEDRMRVDFKCYDEPHDFKSLPNLAIGSVKLLTVVDCVLDDDRPILESFKFLEVADVRSFVYNNHENGIRYNAKYFEGMEQLENLTLARGVVSIDRDTFSGFLNLKRLTIEHNKLNLQPGTFEALSNLTYLGLVYNGLNEIQPGLFDGLESLEALSLSYNDIKSLSAGSFNGLSSLRMLNLRVNKIESFDANTFASLKELSRLEITLNPFVSLPRGLFSENKKLKTLILTNNRKLVTLPEELLANLKELTVVNLSHNGVGNLPESLLSGSSGIIELNLGYNRLNSLPEELLSDQPQLQVLNLDHNQLESIPDYFLERNVELQTLYLSHNRLRSLSEKAFTKLKNLKELHLENNQLQTIPQFLFSGTPKLEEIYMQNNQLALHANSFINEELSIADNDNTPFQVLQKLRILHLRNNSISTIFQDWYINNLEMQSLDLSFNKLPGLSYTQLQFQSNITLNLSNNEISQVLLIDDLDLQPYQRINVDLNHNPLNCNCNALKFIQLIQSKAEHGLQFNVDQLRCSEPPNLLDATMDQLQTKDLLCDFESADDCPKDCQCAMRLLDHTVIVNCSGRGLTEFPDLPIPSQLHEDFNALEVHVENNRLTKLPNLTKHNEITQLYARNNSIQNLLPHNIPSKLRIIDLSQNLLKMIDDSTLAQINRSSHLETIRLSQNQWLCDCPASSFLIFVQQNSRLISDMSAIRCHPSGKSLDSITVNELCFEDYTTENLYFQ
modifications: Asn-linked glycans visible at positions 151, 194, 481, 521, 634 and 687
koff [1]: 0.00532 s⁻¹ | stoichiometry N (Toll5A per Spz1C dimer (1:1 complex)) [2]: 1 | stoichiometry N (Toll5A per Spz1C dimer (2:1 complex)) [2]: 2 | stoichiometry N (Toll5A per Spz1C dimer (2:2 complex)) [2]: 1 | stoichiometry N [3]: 2 | stoichiometry N (Toll5A per Spz1C dimer) [4]: 2 | stoichiometry N (Toll5A per Spz1C dimer) [5]: 1 and 2 | stoichiometry N [6]: 2 | koff [7]: 0.0324 s⁻¹ | Kd [8]: 2000 nM | stoichiometry N (Toll5A per Spz1C dimer) [9]: 2

B2: Drosophila melanogaster Spaetzle (Spz1) (ligand)
chain: VGGSDERFLCRSIRKLVYPKKGLRADDTWQLIVNNDEYKQAIQIEECEGADQPCDFAANFPQSYNPICKQHYTQQTLASIKSDGELDVVQNSFKIPSCCKCALKTG
modifications: disulfide-linked dimer of the processed cys-knot form (C-106; limits from the UniProt chain feature, not given); the proprotein (26-326) was also immobilised
Kd [10]: 30 to 80 nM
